Assay results from patent US20220033501A1 (SHANGHAI PHARMAEXPLORER, published 2022).
Each block holds one binder with its values, some of them ahead of it.

Assays:
[1] = biological target: T1, monkey TIM-3 extracellular domain protein with hFc tag (cTIM-3-hFc) (monkey); test: ELISA, coated monkey TIM-3 ECD protein, 0.6667 nM antibody
T1 construct: not shown: human IgG Fc fragment (hFc) of the pCpC vector
T1 chain: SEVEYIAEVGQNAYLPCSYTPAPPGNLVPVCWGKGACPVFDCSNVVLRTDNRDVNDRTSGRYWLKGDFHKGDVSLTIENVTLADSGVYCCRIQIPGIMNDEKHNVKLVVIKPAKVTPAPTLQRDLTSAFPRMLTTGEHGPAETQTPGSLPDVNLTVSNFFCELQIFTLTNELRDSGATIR

[2] = biological target: T2, human TIM-3 on CHOK1 stable cell line (CHOK1-hTIM-3) (human, UniProt Q8TDQ0 22-301); test: FACS, CHOK1-hTIM-3 cells, 0.32 nM antibody
T2 sequence: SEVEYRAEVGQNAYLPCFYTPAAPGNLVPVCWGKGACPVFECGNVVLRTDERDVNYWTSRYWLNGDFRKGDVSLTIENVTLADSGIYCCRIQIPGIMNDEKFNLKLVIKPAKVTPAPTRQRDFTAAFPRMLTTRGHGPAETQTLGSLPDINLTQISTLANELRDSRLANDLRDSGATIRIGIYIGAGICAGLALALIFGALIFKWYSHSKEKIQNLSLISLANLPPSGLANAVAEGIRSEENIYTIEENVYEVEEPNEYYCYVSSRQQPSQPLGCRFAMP

[3] = biological target: T3, monkey TIM-3 on CHOK1 stable cell line (CHOK1-cTIM-3) (monkey); test: FACS, CHOK1-cTIM-3 cells, 0 nM antibody
T3 chain: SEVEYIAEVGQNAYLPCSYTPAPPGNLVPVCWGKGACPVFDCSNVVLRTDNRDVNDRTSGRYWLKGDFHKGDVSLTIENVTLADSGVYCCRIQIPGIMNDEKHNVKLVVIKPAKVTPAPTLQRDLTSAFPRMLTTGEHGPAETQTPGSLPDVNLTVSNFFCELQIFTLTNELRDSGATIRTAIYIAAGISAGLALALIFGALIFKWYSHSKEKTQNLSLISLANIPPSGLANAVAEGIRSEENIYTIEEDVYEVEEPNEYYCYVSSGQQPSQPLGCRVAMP

[4] = biological target: T4, human TIM-3 extracellular domain protein with hFc tag (hTIM-3-hFc) (human, UniProt Q8TDQ0 22-200); test: ELISA, coated human TIM-3 ECD protein, 0.0001 nM antibody
T4 construct: not shown: human IgG Fc fragment (hFc) of the pCpC vector
T4 sequence: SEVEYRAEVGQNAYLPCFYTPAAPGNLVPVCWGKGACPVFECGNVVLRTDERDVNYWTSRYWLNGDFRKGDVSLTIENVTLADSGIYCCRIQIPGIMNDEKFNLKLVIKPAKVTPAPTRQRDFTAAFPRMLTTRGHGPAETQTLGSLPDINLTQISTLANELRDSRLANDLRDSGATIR

[5] = biological target: T5, murine TIM-3 extracellular domain protein with hFc tag (mTIM-3-hFc) (mouse, UniProt Q8VIM0 29-191); test: ELISA, coated mouse TIM-3 ECD protein, 0.6667 nM antibody
T5 construct: also called mouse TIM-3 extracellular domain protein; not shown: human IgG Fc fragment (hFc) of the pCpC vector
T5 chain: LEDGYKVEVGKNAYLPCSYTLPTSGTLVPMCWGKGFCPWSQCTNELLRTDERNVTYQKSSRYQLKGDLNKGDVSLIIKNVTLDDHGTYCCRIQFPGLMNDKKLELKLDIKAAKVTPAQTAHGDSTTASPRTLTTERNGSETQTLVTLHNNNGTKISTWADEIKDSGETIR

[6] = biological target: T6, TIM-3 protein on human peripheral blood mononuclear lymphocytes (PBMC) (human, UniProt Q8TDQ0 22-301); test: cell-based or functional assay
T6 sequence: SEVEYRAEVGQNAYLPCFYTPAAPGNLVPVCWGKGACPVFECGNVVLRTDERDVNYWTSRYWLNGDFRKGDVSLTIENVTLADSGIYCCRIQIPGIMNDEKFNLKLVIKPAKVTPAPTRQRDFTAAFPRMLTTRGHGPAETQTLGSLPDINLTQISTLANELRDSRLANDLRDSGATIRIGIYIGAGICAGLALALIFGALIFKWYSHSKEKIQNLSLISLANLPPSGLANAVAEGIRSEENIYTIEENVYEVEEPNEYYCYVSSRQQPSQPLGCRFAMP

[7] = biological target: T7, monkey TIM-3 protein with hFc tag (cTIM-3-hFc protein) (monkey; human); test: ELISA, coated cTIM-3-hFc; antibody 0.0001 nM
T7 construct: Made in HEK293 cells; also called monkey TIM-3 extracellular domain protein; not shown: human IgG Fc fragment (hFc) of the pCpC vector
T7 chain: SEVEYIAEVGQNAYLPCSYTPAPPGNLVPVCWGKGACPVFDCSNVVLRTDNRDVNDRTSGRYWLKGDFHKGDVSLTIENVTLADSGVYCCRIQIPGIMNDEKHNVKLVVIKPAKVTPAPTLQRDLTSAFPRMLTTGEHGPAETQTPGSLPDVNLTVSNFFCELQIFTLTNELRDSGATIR
Source text: The amino acid sequence 22-200 of the extracellular domain of the human TIM-3 protein described in the step of Example 1 (as shown in SEQ ID NO. 71 in the sequence listing) was cloned into a pCpC vector having a human IgG Fc fragment (hFc), and transfected into HEK293 cells. The cell culture medium was collected, and purified to obtain the human TIM-3 protein with hFc tag (herein referred to as hTIM-3-hFc protein). The amino acid sequence 22-201 of the extracellular domain of the monkey TIM-3 protein (as shown in SEQ ID NO. 72 in the sequence listing) was cloned into a pCpC vector having a human IgG Fc fragment (hFc), and transfected into HEK293 cells. The cell culture medium was collected, and purified to obtain the monkey TIM-3 protein with hFc tag (herein referred to as cTIM-3-hFc protein). […] The cell culture medium was collected, and purified to obtain the murine TIM-3 protein with hFc tag (herein referred to as mTIM-3-hFc protein). Purified human, monkey, and mouse TIM-3 extracellular domain proteins (hTIM-3-hFc, cTIM-3-hFc, and mTIM-3-hFc) were diluted with PBS to a final concentration of 1.0 μg/ml and then added to a 96-well ELISA plate with 100 μl per well. The plate was sealed with plastic film and incubated overnight at 4° C. The plate was washed 4 times with the plate washing solution (PBS+0.01% Tween20) on the next day, and added with the blocking solution (PBS+0.01% Tween20+1% BSA) and sealed at room temperature for 1-2 hours. The blocking solution was poured out. 50-100 μl of the antibody sample to be tested was added to each well. The plate was incubated at 37° C. for 1-2 hours, and washed 2-3 times with plate washing solution (PBS+0. 01% Tween20). HRP (horseradish peroxidase) labeled secondary antibody was added. The plate was incubated at 37° C. for 1-2 hours, and washed 2-3 times with plate washing solution (PBS+0. 01% Tween20). […] of TMB substrate was added to each well. After incubated at room temperature for 15-30 minutes, the plate was added with […] stop solution (1.0N HCl) to each well. An ELISA plate reader (TiterMax 384plus, Molecular Device) was used to read the A450 nm value.

OD450 [1]: 3.15 | Mean fluorescence intensity [2]: 69.7 | Mean fluorescence intensity [3]: 2.9 | OD450 [4]: 0.08 | OD450 [5]: 0.28 | IFN-γ production (donor X); antibody 0.1 µg/ml, N = 1 [6]: 2800 pg/mL | IFN-γ production (donor X); antibody 0.1 µg/ml, N = 2 [6]: 2980 pg/mL | IFN-γ production (donor X); antibody 1 µg/ml, N = 1 [6]: 3550 pg/mL | IFN-γ production (donor X); antibody 1 µg/ml, N = 2 [6]: 3150 pg/mL | IFN-γ production (donor X); antibody 10 µg/ml, N = 1 [6]: 3080 pg/mL | IFN-γ production (donor X); antibody 10 µg/ml, N = 2 [6]: 3340 pg/mL | IFN-γ production (donor X); antibody '0' (4th head as printed), N = 1 [6]: 2870 pg/mL | IFN-γ production (donor X); antibody '0' (4th head as printed), N = 2 [6]: 2740 pg/mL | IFN-γ production (donor X); antibody '0' (5th head as printed), N = 1 [6]: 2160 pg/mL | IFN-γ production (donor X); antibody '0' (5th head as printed), N = 2 [6]: 2400 pg/mL
B1: 57F4E5 fully human TIM-3 antibody (human IgG4, kappa) (antibody, V domains shown)
VH: EVQLVESGGGLVQPGGSLRLSCAASGFTFSSYWMSWVRQAPGKGLEWVANIKQDGSEKYYVDSVKGRFTISRDSAKNSLYLQMNSLRAEDTAMYFCARDSNFFDYWGQGTLVTVSS
VL: ETVMTQSPATLSVSPGERATLSCRASQSVSSNLAWYQRKPGQAPRLLIYFSSTRATGIPARFSGSGSGTEFTLTISSLQSEDFAVYYCQQYNNWPLTFGGGTKVEIK

OD450 [7]: 0.58
B3: 57F4E5 (TIM-3 antibody purified from hybridoma, chimeric antibody of Example 2) (antibody, V domains shown)
VH: EVQLVESGGGLVQPGGSLRLSCAASGFTFSSYWMSWVRQAPGKGLEWVANIKQDGSEKYYVDSVKGRFTISRDSAKNSLYLQMNSLRAEDTAMYFCARDSNFFDYWGQGTLVTVSS
VL: ETVMTQSPATLSVSPGERATLSCRASQSVSSNLAWYQRKPGQAPRLLIYFSSTRATGIPARFSGSGSGTEFTLTISSLQSEDFAVYYCQQYNNWPLTFGGGTKVEIK
notes: From hybridoma of Harbour H2L2 transgenic mice: human variable regions, rat constant regions

Continued, binder first:

B2: 134H3G6 (TIM-3 antibody purified from hybridoma, chimeric antibody of Example 2) (antibody, V domains shown)
VH: EVQLVESGGGLVQPGGSLRLSCAASGFTFSNSWMTWVRQAPGKGLEWVANIKQAGTEKYYVDSVKGRFTISRDNAKNSLYLQMNSLRAEDTAVYYCNSGSNYFDYWGQGTLVTVSS
VL: EIVMTQSPATLSVSPGERATLSCRARQNFYSNLAWYQQKPGQAPRLLIYGASTRATGIPARFSGSGSGTEFTLTISSLQSEDFAVYYCQQYNNWPLTFGGGTKVEIK
notes: as for B3
OD450 [7]: 0.54

B4: 39E5H1 (TIM-3 antibody purified from hybridoma, chimeric antibody of Example 2) (antibody, V domains shown)
VH: EVQLVESGGGLVQPGGSLRLSCAASGFTFSSYWMSWVRQAPGKGLEWVANIKRGGSERYYVDSVKGRFTISGDNAKNSVYLQMNSLRAEDTAVYYCARGSNWFDPWGQGTLVTVSS
VL: ETVMTQSPAILSVSPGERATLSCRASQSVYSNLAWYQQKLGQAPRLLIYDASTRATGIPARFSGSGSGTEFTLTISSLQSEDFAVYYCQQYNNWPITFGQGTRLEIK
notes: as for B3
OD450 [7]: 0.57

B5: 18D2H2 (TIM-3 antibody purified from hybridoma, chimeric antibody of Example 2) (antibody, V domains shown)
VH: EVQLVESGGDLVQPGGSLRLSCAASGFTFSTYWMTWVRQAPGRGLEWVANIKQDGSAKYYVDSVKGRFTLSRDDAKNSLYLQMNSLRAEDTAVYYCARGSNWFDYWGQGTLVTVSS
VL: ETVMTQSPATLSVSPGERATLSCRANQNVYSNLAWYQQKPGQAPRLLIYDASTRATGFPARFSGSGSGTEFTLTISSLQSEDFAVYYCQQYNNWPLTFGGGTKVEIK
notes: as for B3
OD450 [7]: 0.53
